B1: Splicing factor 1 (Homo sapiens), Q15637 (parent)
chain: MATGANATPLDFPSKKRKRSRWNQDTMEQKTVIPGMPTVIPPGLTREQERAYIVQLQIEDLTRKLRTGDLGIPPNPEDRSPSPEPIYNSEGKRLNTREFRTRKKLEEERHNLITEMVALNPDFKPPADYKPPATRVSDKVMIPQDEYPEINFVGLLIGPRGNTLKNIEKECNAKIMIRGKGSVKEGKVGRKDGQMLPGEDEPLHALVTANTMENVKKAVEQIRNILKQGIETPEDQNDLRKMQLRELARLNGTLREDDNRILRPWQSSETRSITNTTVCTKCGGAGHIASDCKFQRPGDPQSAQDKARMDKEYLSLMAELGEAPVPASVGSTSGPATTPLASAPRPAAPANNPPPPSLMSTTQSRPPWMNSGPSESRPYHGMHGGGPGGPGGGPHSFPHPLPSLTGGHGGHPMQHNPNGPPPPWMQPPPPPMNQGPHPPGHHGPPPMDQYLGSTPVGSGVYRLHQGKGMMPPPPMGMMPPPPPPPSGQPPPPPSGPLPPWQQQQQQPPPPPPPSSSMASSTPLPWQQNTTTTTTSAGTGSIPPWQQQQAAAAASPGAPQMQGNPTMVPLPPGVQPPLPPGAPPPPPPPPPGSAGMMYAPPPPPPPPMDPSNFVTMMGMGVAGMPPFGMPPAPPPPPPQN

Variants of: B1
Conditions: with U2AF2, P26368
U2AF2, P26368, sequence (P26368 whole entry): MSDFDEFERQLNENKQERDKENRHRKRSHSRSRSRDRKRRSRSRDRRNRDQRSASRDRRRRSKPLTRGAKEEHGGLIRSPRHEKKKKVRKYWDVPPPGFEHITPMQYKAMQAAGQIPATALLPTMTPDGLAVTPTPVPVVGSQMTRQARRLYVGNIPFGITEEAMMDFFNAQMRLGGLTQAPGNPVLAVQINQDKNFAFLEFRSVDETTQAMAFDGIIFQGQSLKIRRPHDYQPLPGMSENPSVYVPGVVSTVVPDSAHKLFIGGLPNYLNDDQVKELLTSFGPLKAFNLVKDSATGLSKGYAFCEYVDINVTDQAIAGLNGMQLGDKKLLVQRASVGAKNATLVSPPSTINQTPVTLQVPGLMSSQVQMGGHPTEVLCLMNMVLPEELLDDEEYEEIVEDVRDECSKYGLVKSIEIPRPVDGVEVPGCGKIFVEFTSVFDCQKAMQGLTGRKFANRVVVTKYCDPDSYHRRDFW

effect of a mutation on the interaction	Variant
decreasing interaction strength	I40R;I53R
decreasing interaction strength	R46D
disrupting interaction strength	W22A
decreasing interaction strength	R93E;R97E;R100E
decreasing interaction strength	S80A;S82A
